The source of these data is patent US20070178531A1 (BIOCHECK, published 2007).

Assay [1] deals with T1, Human Id2: Histidine (human, UniProt Q02363 1-134, limits assumed).
T1 construct: Fusion protein made in E. coli from vector pGW07; also called h-Id2: His; not shown: His tag
T1 sequence (looked up): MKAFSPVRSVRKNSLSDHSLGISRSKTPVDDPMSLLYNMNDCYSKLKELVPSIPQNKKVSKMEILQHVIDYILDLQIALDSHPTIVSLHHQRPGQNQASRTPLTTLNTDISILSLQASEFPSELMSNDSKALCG
Put plainly: ELISA, Ab 0.005 µg/ml.

The target of assay [2] is T2, Human Id3: Histidine (human, UniProt Q02535 1-119 at identity 1.00)).
T2 construct: Fusion protein made in E. coli from vector pGW07; also called h-Id3: His; Human Id3 (coated wells); not shown: His tag
T2 chain: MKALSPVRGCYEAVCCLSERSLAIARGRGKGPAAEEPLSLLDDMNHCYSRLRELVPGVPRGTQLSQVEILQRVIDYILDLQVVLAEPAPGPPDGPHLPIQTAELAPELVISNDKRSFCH
Description: ELISA, Ab 0.005 µg/ml.

Assay [3] concerns the target T3, Mouse Id1: Histidine (mouse, UniProt P20067-2 1-148, limits assumed).
T3 construct: Fusion protein made in E. coli from vector pGW07; also called m-Id1-His; not shown: His tag
T3 sequence (looked up): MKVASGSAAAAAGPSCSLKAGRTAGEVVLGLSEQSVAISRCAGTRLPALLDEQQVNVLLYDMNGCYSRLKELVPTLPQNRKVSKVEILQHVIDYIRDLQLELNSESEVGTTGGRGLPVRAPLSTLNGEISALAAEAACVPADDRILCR
Description: ELISA, Ab 0.005 µg/ml. In general terms: ELISA stands for enzyme-linked immunosorbent assay.

Assay [4] deals with T4, Mouse Id3: Histidine (mouse, UniProt P41133 1-119).
T4 construct: Fusion protein made in E. coli from vector pGW07; also called m-Id3: His; Mouse Id3 (coated wells); not shown: His tag
T4 sequence: T2 chain with G31S, A33S, A34T, A105T, N112K
Put plainly: ELISA, Ab 0.005 µg/ml.

For assay [5], the target named is T5, Mouse Id2: Histidine (mouse, UniProt P41136 1-134, limits assumed).
T5 construct: Fusion protein made in E. coli from vector pGW07; also called m-Id2: His; not shown: His tag
T5 sequence (looked up): T1 sequence (looked up) with S60T, A131V
Put plainly: ELISA, Ab 0.005 µg/ml.

Assay [6] addresses T6, Human Id1: Histidine (human, UniProt P41134 1-155, limits assumed).
T6 construct: Fusion protein made in E. coli from vector pGW07; also called h-Id1: his; not shown: His tag
T6 sequence (looked up): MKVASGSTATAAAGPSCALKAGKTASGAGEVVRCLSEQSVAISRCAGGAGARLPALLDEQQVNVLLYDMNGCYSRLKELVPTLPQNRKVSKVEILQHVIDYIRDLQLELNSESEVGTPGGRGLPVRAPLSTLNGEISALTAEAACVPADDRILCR
Put plainly: ELISA, Ab 0.005 µg/ml.

The target of assay [7] is T1, Human Id2: Histidine. Put plainly: ELISA, Ab 0.500 µg/ml.
In assay [8] the target is T2, Human Id3: Histidine. Put plainly: ELISA, Ab 0.500 µg/ml.
In assay [9] the target is T3, Mouse Id1: Histidine. Put plainly: ELISA, Ab 0.500 µg/ml.
Assay [10] deals with T4, Mouse Id3: Histidine. Put plainly: ELISA, Ab 0.500 µg/ml.
The target in assay [11] is T5, Mouse Id2: Histidine. Put plainly: ELISA, Ab 0.500 µg/ml.
Assay [12] deals with T6, Human Id1: Histidine. Description: ELISA, Ab 0.500 µg/ml.
Assay [13] has as its target T1, Human Id2: Histidine. Put plainly: ELISA on coated wells, summary.
Assay [14] has as its target T3, Mouse Id1: Histidine. Put plainly: ELISA on coated wells, summary.
Assay [15] concerns the target T5, Mouse Id2: Histidine. Description: ELISA on coated wells, summary.
The next assay has as its target T7, Human Id4: Histidine (human, UniProt P47928 1-161, limits assumed).
T7 construct: Fusion protein made in E. coli from vector pGW07; also called h-Id4: His; not shown: His tag
T7 sequence (looked up): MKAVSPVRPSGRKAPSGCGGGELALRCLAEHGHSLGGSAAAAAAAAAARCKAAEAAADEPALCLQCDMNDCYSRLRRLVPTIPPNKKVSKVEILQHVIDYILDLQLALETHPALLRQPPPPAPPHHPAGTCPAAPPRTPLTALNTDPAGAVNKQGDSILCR
Description: ELISA on coated wells, summary.

Assay [16] concerns the target T6, Human Id1: Histidine. Description: ELISA on coated wells, summary.

Changes are numbered by the printed parent chain. A value given as a limit tells only on which side of the number the result lay.

B1: rabbit monoclonal anti-mouse/human Id3, clone #BCH-4/#6-1 (antibody, V domains shown)
VH: QSVEESGGRLVTPGTPLTLTCTASGFSLSNVYIHWVRQAPGKGLEWIGYISDGDTARYATWAKGRFTISKTSSTTVNLKMTSLTTEDTATYFCARQGFNIWGPGTLVTVSL
VL: AVLTQTPSPVSAAVGGTVSISCQSSQSVWNNNWLSWFQQKPGQPPKLLIYETSKLESGVPSRFKGSGSGTQFTLTISDVQCDDAATYYCLGGYWTTSDNNVFGGGTEVVVK
notes: Rabbit IgG from a rabbit hybridoma; also called m/h Id3 MoAb 6-1
Take B1: the A450 is 0.076 A450 in the assay with Human Id2: Histidine [1]; 0.248 A450 in the assay with Human Id3: Histidine [2]; 0.076 A450 in the assay with Mouse Id1: Histidine [3]; 0.295 A450 with Mouse Id3: Histidine [4]; 0.073 A450 in the assay with Mouse Id2: Histidine [5]; 0.075 A450 in the assay with Human Id1: Histidine [6]. Further, the A450 in the assay with Human Id2: Histidine [7] is 0.062 A450; with Human Id3: Histidine [8], 3.3 A450; with Mouse Id1: Histidine [9], 0.067 A450; with Mouse Id3: Histidine [10], 3.47 A450; with Mouse Id2: Histidine [11] it was 0.073 A450; with Human Id1: Histidine [12], 0.062 A450.

B2: rabbit monoclonal anti-human Id3, clone #BCH-4/#3-3 (antibody, V domains shown)
VH: QSVEESGGRLVTPGTPLTLTCTVSGIDLSSYAMSWVRQAPGKGLEWIGVIFPSNNVYYASWAKGRFTISKTSTTVDLKITSPTTEDTATYFCASMGAFDSWGPGTLVTVSS
VL: QVLTQTPSPVSAAVGGTVTINCQASQSIYNDNDLAWFQQKPGQPPKLLIYDASTLTSGVPSRFKGSGSGTQFTLTISDLDCDDAATYYCAARYSGNIYGFGGGTEVVVK
notes: Rabbit IgG from a rabbit hybridoma; also called h Id3 MoAb 3-3
B2: the “Cross-reactivity (%)” value with Human Id2: Histidine [13], with Mouse Id1: Histidine [14], in the assay with Mouse Id2: Histidine [15], in the assay with Human Id4: Histidine and with Human Id1: Histidine [16] was less than 1% throughout.
